Experiments:
A^k molecule = A^k molecule (Mus musculus, UniProt P01910+P06343); assay: Competitive inhibition of radiolabelled peptide binding to affinity purified MHC class II A^k; settings: 125I-labelled marker HEL(46-61)Y, cold peptide >550 μm, pH 5
Method: (§1) Peptide-MHC complexes were obtained by incubating ^125I-labelled peptide (10-100 nM) with affinity purified MHC class II molecules (2- 10 μM) at room temperature for 3 days (S. Mouritsen, J Immunol. 148, 1438-1444, 1992). The following peptides were used as radiolabelled markers of binding: Hb(64-76)Y which binds strongly to the E^k molecule and HEL(46-61)Y which binds strongly to the A^k molecule. These complexes were incubated with large amounts of cold non radiolabelled peptide (>550 μm) which should be sufficient to inhibit totally all immunologically relevant MHC class II binding. Either the same peptides were used or were three different overlapping peptides representing the flanking regions as well as the entire OVA(325-336) sequence, containing the T cell epitope, which was substituted into ubiquitin (see Example 2). The three peptides were: TITLEPSQAVHAA (U(12-26)), PSQAVHAAHAEINEKE (U(19-34)) and HAEINEKEGIPPDQQ (U(27-41)). The reaction buffer contained 8 mM citrate, […], and 0.05% NP-40 (pH 5) and peptide-MHC class II complexes were separated (in duplicate) from free peptide by gel filtration using G25 spun columns. Both the radioaictivities of the excluded “void” volume and of the included “void” were measured by gamma spectrometry. The competitive inhibition of maximal binding (in percent) by addition of cold peptide was calculated.

E^k molecule = assay: Competitive inhibition of radiolabelled peptide binding to affinity purified MHC class II E^k; parameters: species or system mouse; settings: 125I-labelled marker Hb(64-76)Y, cold peptide >550 μm, pH 5
Method: as §1

Row | Substance | competitive inhibition of maximal binding by addition of cold peptide (A^k molecule) [%] | competitive inhibition of maximal binding by addition of cold peptide (E^k molecule) [%]
1 | HAEINEKEGIPPDQQ [U(27-41), overlapping peptide of the OVA(325-336) region substituted into ubiquitin] | 7.8 | 0.0
2 | HEL(46-61): marker peptide which binds strongly to the A^k molecule; cold version used as competitor [reference compound] | 97.4 | 0.0
3 | PSQAVHAAHAEINEKE [U(19-34), overlapping peptide of the OVA(325-336) region substituted into ubiquitin] | 44.6 | 12.2
4 | TITLEPSQAVHAA [U(12-26), overlapping peptide of the OVA(325-336) region substituted into ubiquitin] | 35.3 | 45.6

— US20020090379A1, “INDUCING ANTIBODY RESPONSE AGAINST SELF-PROTEINS WITH THE AID OF FOREIGN T-CELL EPITOPES” (priority 1993, published 2002)
